This is an account of results in article PMC4134374.

Experiment [1] deals with TMR-labelled 2RA H4-tail peptide. The experiment in a line: fluorescence polarisation.
Experiment [2] addresses TMR-labelled wt H4-tail peptide. The experiment in a line: fluorescence polarisation.

With “wt Acf1 (accessory subunit of human ACF), isolated (from UniProt Q9NRL2 1-1556) (natural protein)”, the Kd in experiment [1] stood at 41 nM; in experiment [2], 3 nM. Consider “ΔC-term Acf1 (residues 1423-1556 deleted) (from UniProt Q9NRL2 1-1422) (domain or fragment)”, for which, in experiment [2], the Kd turned out to be 2 nM.
